Laboratory results from IntAct's records for PubMed 21905166.

B1: Rab proteins geranylgeranyltransferase component A 1 (Homo sapiens), P24386 (parent)
chain: MADTLPSEFDVIVIGTGLPESIIAAACSRSGRRVLHVDSRSYYGGNWASFSFSGLLSWLKEYQENSDIVSDSPVWQDQILENEEAIALSRKDKTIQHVEVFCYASQDLHEDVEEAGALQKNHALVTSANSTEAADSAFLPTEDESLSTMSCEMLTEQTPSSDPENALEVNGAEVTGEKENHCDDKTCVPSTSAEDMSENVPIAEDTTEQPKKNRITYSQIIKEGRRFNIDLVSKLLYSRGLLIDLLIKSNVSRYAEFKNITRILAFREGRVEQVPCSRADVFNSKQLTMVEKRMLMKFLTFCMEYEKYPDEYKGYEEITFYEYLKTQKLTPNLQYIVMHSIAMTSETASSTIDGLKATKNFLHCLGRYGNTPFLFPLYGQGELPQCFCRMCAVFGGIYCLRHSVQCLVVDKESRKCKAIIDQFGQRIISEHFLVEDSYFPENMCSRVQYRQISRAVLITDRSVLKTDSDQQISILTVPAEEPGTFAVRVIELCSSTMTCMKGTYLVHLTCTSSKTAREDLESVVQKLFVPYTEMEIENEQVEKPRILWALYFNMRDSSDISRSCYNDLPSNVYVCSGPDCGLGNDNAVKQAETLFQEICPNEDFCPPPPNPEDIILDGDSLQPEASESSAIPEANSETFKESTNLGNLEESSE
partner: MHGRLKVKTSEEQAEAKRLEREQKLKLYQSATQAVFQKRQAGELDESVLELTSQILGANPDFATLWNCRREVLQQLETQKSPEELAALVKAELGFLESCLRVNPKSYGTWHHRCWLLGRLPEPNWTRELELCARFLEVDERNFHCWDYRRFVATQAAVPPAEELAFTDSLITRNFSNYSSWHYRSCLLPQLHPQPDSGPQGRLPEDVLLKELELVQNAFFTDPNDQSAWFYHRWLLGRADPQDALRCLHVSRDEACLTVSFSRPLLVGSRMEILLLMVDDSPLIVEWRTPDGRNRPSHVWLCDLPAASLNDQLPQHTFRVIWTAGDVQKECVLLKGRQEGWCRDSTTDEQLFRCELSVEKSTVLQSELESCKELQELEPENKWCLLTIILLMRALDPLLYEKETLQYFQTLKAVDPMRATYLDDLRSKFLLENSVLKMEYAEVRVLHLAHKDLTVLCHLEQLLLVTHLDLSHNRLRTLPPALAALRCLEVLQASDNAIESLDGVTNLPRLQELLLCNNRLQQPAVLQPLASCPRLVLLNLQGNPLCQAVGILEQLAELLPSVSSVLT

Variants of: B1
Settings: with pgta_human RABGGTA

Row | effect of a mutation on the interaction | Variant
1 | disrupting interaction | H507R
